Test results from patent US20210008161A1 (CRISPR THERAPEUTICS, published 2021).

Molecular target: p53-binding protein 1 (53BP1) (human, UniProt Q12888 1-1972)
Experiment: cell-based or functional assay

Sequence of p53-binding protein 1 (53BP1) (Q12888 whole entry): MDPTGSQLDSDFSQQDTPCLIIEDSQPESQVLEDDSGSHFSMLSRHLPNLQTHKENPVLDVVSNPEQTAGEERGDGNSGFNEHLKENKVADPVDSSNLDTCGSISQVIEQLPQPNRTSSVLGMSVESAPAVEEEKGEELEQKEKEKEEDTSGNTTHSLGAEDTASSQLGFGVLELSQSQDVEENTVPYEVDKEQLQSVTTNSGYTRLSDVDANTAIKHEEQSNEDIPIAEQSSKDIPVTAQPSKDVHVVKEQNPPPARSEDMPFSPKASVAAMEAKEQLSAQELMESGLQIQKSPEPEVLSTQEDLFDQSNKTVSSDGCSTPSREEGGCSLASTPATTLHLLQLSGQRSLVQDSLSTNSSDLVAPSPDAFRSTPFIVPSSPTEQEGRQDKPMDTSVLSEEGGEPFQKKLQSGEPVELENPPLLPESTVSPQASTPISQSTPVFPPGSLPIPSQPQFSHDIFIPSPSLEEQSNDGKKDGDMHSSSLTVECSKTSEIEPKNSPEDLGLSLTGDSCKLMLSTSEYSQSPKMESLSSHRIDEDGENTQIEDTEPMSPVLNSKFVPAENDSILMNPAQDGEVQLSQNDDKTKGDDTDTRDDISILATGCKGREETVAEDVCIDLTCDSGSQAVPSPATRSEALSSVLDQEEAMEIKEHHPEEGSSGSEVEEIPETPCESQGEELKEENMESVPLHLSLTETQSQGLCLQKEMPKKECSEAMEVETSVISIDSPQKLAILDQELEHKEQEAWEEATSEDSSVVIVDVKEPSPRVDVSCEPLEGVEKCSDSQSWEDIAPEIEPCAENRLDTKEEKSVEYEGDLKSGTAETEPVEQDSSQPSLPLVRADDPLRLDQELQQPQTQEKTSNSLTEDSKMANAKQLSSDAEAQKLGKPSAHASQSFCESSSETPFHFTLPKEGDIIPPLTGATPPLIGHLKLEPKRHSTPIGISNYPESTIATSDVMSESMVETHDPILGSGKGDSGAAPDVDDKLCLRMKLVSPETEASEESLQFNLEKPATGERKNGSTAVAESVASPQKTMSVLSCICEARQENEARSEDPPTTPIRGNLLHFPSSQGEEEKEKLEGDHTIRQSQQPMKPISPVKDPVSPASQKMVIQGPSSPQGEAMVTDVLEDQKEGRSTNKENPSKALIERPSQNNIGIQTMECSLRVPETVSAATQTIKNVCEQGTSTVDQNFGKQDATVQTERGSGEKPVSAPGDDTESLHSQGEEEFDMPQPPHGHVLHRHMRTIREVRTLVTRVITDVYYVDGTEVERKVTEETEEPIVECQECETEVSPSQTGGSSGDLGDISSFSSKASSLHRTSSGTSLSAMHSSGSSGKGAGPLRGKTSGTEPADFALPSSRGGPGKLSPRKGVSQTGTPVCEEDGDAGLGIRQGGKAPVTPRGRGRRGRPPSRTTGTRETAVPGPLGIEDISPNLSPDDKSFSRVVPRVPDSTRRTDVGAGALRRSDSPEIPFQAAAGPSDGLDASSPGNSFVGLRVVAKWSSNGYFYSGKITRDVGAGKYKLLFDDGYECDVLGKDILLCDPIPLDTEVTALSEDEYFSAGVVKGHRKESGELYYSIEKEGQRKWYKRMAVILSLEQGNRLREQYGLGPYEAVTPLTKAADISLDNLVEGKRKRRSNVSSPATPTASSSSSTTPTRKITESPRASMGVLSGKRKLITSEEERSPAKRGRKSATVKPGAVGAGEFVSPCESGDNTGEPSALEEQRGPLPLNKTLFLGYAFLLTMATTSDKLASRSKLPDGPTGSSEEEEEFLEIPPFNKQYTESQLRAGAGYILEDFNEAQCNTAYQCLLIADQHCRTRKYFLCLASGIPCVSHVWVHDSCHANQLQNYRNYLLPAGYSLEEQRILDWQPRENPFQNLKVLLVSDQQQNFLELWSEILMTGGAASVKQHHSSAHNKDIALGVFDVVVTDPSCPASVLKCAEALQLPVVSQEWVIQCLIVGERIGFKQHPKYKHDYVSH

B1: i53 polypeptide (polypeptide inhibitor of 53BP1) (designed binder)
chain: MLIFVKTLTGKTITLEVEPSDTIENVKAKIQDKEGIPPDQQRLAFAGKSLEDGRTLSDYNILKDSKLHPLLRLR
In the case of B1, the “HDR efficiency (GFP insertion at the HBB locus, CD34-expressing LT-HSPCs, GFP fluorescence)” value is reported as roughly 1.3 fold, the “INDEL frequency at the HBB locus relative to RNP+AAV (CD34-expressing LT-HSPCs, TIDE analysis)” value is reported as 1.7 fold and the “fold increase in HDR at the HBB locus over RNP+AAV alone (CD34-expressing LT-HSPCs, NGS assay)” value is reported as 1.4 fold. The “fold increase in HDR efficiency over RNP+AAV alone (LT-HSPCs mobilised with Mozobil+GCSF)” value was roughly 1.5 fold.
